The text below walks through data of patent US6127169.

This assay deals with specific cell surface receptors on mouse embryo fibroblasts.

B1: mouse β-galactoside binding protein (GBP), natural or recombinant, complexed or non-complexed form not told (ligand)
chain: ACGLVASNLNLKPGECLKVRGEVASDAKSFVLNLGKDSNNLCLHFNPRFNAHGDANTIVCNTKEDGTWGTEHREPAFPFQPGSITEVCITFDQADLTIKLPDGHEFKFPNRLNMEAINYMAADGDFKIKCVAFE
modifications: 125I label in the receptor binding assays
In turn, B1 came in with a growth inhibition of synchronous mouse embryo fibroblasts (cell count) of 100%.
